# According to the DeepSol protein solubility set:
# Assay: soluble on expression in E. coli; label from the status in PepcDB or PDB records
row,Sequence,soluble on expression in E. coli
1,MYPIKYVENNLVFNQEGECFAYYELVPYNYSFLSPEQKYQVHDNFRQLIAQNREGKIHALQIATESSIRATQERSKKEITGRLKEVAKQRIDLQTDALVSMIGDSQIDYRFFIGFKLIATDEEVNLKSLKKSFLSGLQEFVYGVNHHLMGDFVSLSNEEIRRYTKLEKLMESKLARRFKVRRVTPSDLTYLIEHIYGEKGTPFEEYEFQLPKKKLKSETLVKRYDLLHPSRCLIEENPRYLRMEHENHESYVAYLTINTIVGEMEFPSSELFYYQQQQFTFPIDTSMNVEIVTNKKALATVRNKKKELKDLDNHAYQSDNETNSNVLDALDSVNELETTLDQSKESMYKLSYVVRVSAESVDELKRRCDEVFDFYDDTNVKLVRPFGDMMGLHEEFLPSSKRYMNDYIQYVTSDFLAGLGFGATQKLGELEGIYFGYNVDTGRNVYLKPALASQGVKGSVTNALAAAFLGSLGGGKSFSNNLLVYYAVLFGGQAVIVDPKGERGGWKENLPEIADEINILNLTSKPENQGLLDPYVIMKKKKDSESLAIDILTFLTGISSRDGEKFPVLRKAIRTVTQSDQRGLLQVINELRKENSPVAENIADHIESFTDYDFAHLLFSDGSITQSISLDKQLNIIQVADLVLPDAETTFEEYTTMELLSVSMLIVISTFALDFIHSNREIFKIVDLDEAWSFLQVAQGKTLSNKLVRAGRAMNAGVYFVTQNSDDLLDERLKNNIGLKFAFRSTDIHEIKKTLEFFGLDQEDESNQKRLRDLENGQCLMQDLYGRVGVVQVHPVFEELFHAFDTRPPVQERME,not soluble
2,MNLVELGSKTAKDGFKNEKDIADRFENWKENSEAQDWLVTMGHNLDEIKSVKAVVLSGYKSDINVQVLVFYKDALDIHNIQVKLVSNKRGFNQIDKHWLAHYQEMWKFDDNLLRILRHFTGELPPYHSNTKDKRRMFMTEFSQEEQNIVLNWLEKNRVLVLTDILRGRGDFAAEWVLVAQKVSNNARWILRNINEVLQHYGSGDISLSPRGSINFGRVTIQRKGGDNGRETANMLQFKIDPTELFDI,soluble
3,MQRIIKNNEVIDETWHLLPKDTTLDSLSNCDDLIVPLALWREHAHALKARDGGLGVWLDSDEEAEEIGEDVDQFQVIALNFPAFTDGRSFSNARLLRDRYGFKGELRAIGDVLRDQLFYMRRCGFDAFAVRADKDPYDALEGLKDFSVTYQAATDEPLPLFRRR,not soluble
4,MSLTFIRKVETWITNSKQTEDGWSQIKPFIFLKLTNSDGFEGWGEAFSLPAREKGIVEIIHNLMSSLSYVKDITPDRFYTESNLIADGHRGIDFSAATSAIEMSLWDIEGKKEKKPLYKILSKDYREKVPVYATIWSEDFKNDENLSSRCIEILSDGYGGIKIYPLQNRTVEQAAKCVSKIRDVLGYKIPLMLDLACPKDTNISLKLASLVEEFRPYWFEEPVDGEATRALKDIREKTSLRIVSGEKQCGLNHFIETLALDAVDIFNPDISGVGGIIDMIKIIKLSHEKKVTVSPHCWNSMSIAASAMVHVCMSFTNTEMAEFFPEYIPYSLKFSNQNYEIKDGFVKIEDNEGLGINIDTKLLMEDTSSYRETELTEGHHHHHH,soluble
5,MKTVLVDWNLIPYAEAWQRQTEWFDTLVRAKAQGEAYENRIIMCEHPHVYTLGRSGKENNMLLNDDQLKAIQATLFHIDRGGDITYHGPGQLVCYPILNLEEFHLGLKEYVHLLEEAVIRVCASYGIEAGRLEKATGVWLEGSTPRARKICAIGVRSSHYVTMHGLALNVNTDLRYFSYIHPCGFIDKGVTSLRQELKHEVPMDEVKQRLECELGRLLNEKKQQIAQ,not soluble
6,MKMLEQLEKKLGYTFKDKSLLEKALTHVSYSKKEHYETLEFLGDALVNFFIVDLLVQYSPNKREGFLSPLKAYLISEEFFNLLAQKLELHKFIRIKRGKINETIIGDVFEALWAAVYIDSGRDANFTRELFYKLFKEDILSAIKEGRVKKDYKTILQEITQKRWKERPEYRLISVEGPHHKKKFIVEAKIKEYRTLGEGKSKKEAEQRAAEELIKLLEESE,soluble
7,MGSDKIHHHHHHMQKLTRINDFNEVLNSRKSVKVFDENYKIPREEMDEIITKATKAPSSVNMQPWRIAVVQSDEMKEKVKESFGFNSRQLTTSSAMLIIFGDLQNYEKAEQIYGDAVEQQLMTEDIKAQLLDWILPYYKNLSREGMKDIVNIDSSLMAMQLMLTAKAHGYDTNPIGGFDKENIADIIGYDSDRYVPVLAIAIGKKAQDAHDSVRLPIDDVREFL,not soluble
8,MIGEIPGVAAGQPYNSRRLAHEAGVHRPLQAGICGTKATGAESIVVSGGYKDDEDYGDVIIYTGHGGRDSAGNQVSDQSLDDSGNAALVTSYLRGLPVRVIRGSQSGSPFAPSNGYRYDGLYRVASYTSKLGIDGFLIWQFRMEAYEETPTPKITKVRALFAEPTDCAKQDPVAASGTEQPERVTSMVQRIVRSSAIADTVKAWHQDQCQTCGIHIEVPGGFYSEGAHIQALGRPHNGPDRTDNMLCLCPNCHVMLDAGAIVLSDDLIVSKNGQLVGPLRTHPKHKVNIECVRRHRERWRQLEHHHHHH,not soluble
9,GEITSAYFVCREATLQKLAAMQSIDSEQKLSALFEGSSQIISLFDRDSRFVWYNKAAYDKSIFLFGKFLCVGERFDSYLKEQYREGFNANFERVLKGEIVSYTREYTYQDKPFFLEIMLQPVYQKDELVGVSLIGNN,not soluble
10,MGSDKIHHHHHHMDVDLGKLFFCGFNDFNEEVKEIIRKYRPTGILIYPGVLSKEYLLMDFMSFLSKEGDFLISSDHEGGQLEVLKYVPSSPGNLAFGKNSPDVTYRYSRVAGKIMEIVGLNMVFAPVLDLLSEESSSVIDIRSYGSDPKIVAEHGARACEGYLEGGVIPCIKHFPGHGKAREDSHLTLPVVDAPFEKLWEEDLLPFRKVLEREKKVTVMTAHVRYSSIDSLPATLSEKIITDVLREKIGFDGLVISDAMEMSAVSNNFSVEEIVSLFLNAGGNMILLGDYRNLPVYYETLVKLLEDGKVQKDKVERSIRTVEKYLAFAKKNSGVGFLADVSMKAVEFLGFEKIDHTSEVTLLVPSSENLSQADTTGGDYDQIPEIVSRFFEVENVVRYTVEDGPEFVEGDLIFDFVADIPNEKALKAHLSLPAEKTVYFVLRNPFDVRYFEGRKIVVTRSTKPISIYKSLEHFLGRCDS,not soluble
11,MSQLDNNLSVSVYMKGNVNNHEFEYDGIGGGDPNSGQFSLKTKLRGGKPLPFSYDIITMGFQYGFRAFTKYPEGIADYFKGSFPEAFQWNRRIEFEDGGVINMSSDITYKDKVLHGDVWALGVNFPPNGPVMKNEIVMEEPAEETLTAKNGVLVGFCPKAYLLKDGSYYYGHMTTFYRSKKSGQPLPGFHFIKHRLVKTKVEPGFKMVEQAEYATAHVCDLPKPN,soluble
12,MGSSHHHHHHSSGLVPRGSHMSGSGSGSGTALTPSYLKDDDGRSLILRGFNTASSAKSAPDGMPQFTEADLAREYADMGTNFVRFLISWRSVEPAPGVYDQQYLDRVEDRVGWYAERGYKVMLDMHQDVYSGAITPEGNSGNGAGAIGNGAPAWATYMDGLPVEPQPRWELYYIQPGVMRAFDNFWNTTGKHPELVEHYAKAWRAVADRFADNDAVVAYDLMNEPFGGSLQGPAFEAGPLAAMYQRTTDAIRQVDQDTWVCVAPQAIGVNQGLPSGLTKIDDPRAGQQRIAYCPHLYPLPLDIGDGHEGLARTLTDVTIDAWRANTAHTARVLGDVPIILGEFGLDTTLPGARDYIERVYGTAREMGAGVSYWSSDPGPWGPYLPDGTQTLLVDTLNKPYPRAVAGTPTEWSSTSDRLQLTIEPDAAITAPTEIYLPEAGFPGDVHVEGADVVGWDRQSRLLTVRTPADSGNVTVTVTPAA,soluble
13,MPRTDLPFDELIIREYLLDNPDFFNRYPELLLAMRLPHLERGAISLVERRQELLRQRVNQLEEEITSLLTMAARNEKIFLFNTELSFKLLNCVNLESLKEVLADNLKAQFNFTHVRLISVLEADVEMKAIWAERLRKEYYFGRLTQQEAKRLFGSEVGSVALVKLADDIPVIFAVASHDATHFHPDMDNMLLEQIRRLLAHMLAKLAAALEHHHHHH,not soluble
14,MEIIRPMRVAIVAESFLPNVNGVTNSVLRVLEHLKANGHDALVIAPGARDFEEEIGHYLGFEIVRVPTVRVPLIDSLPIGVPLPSVTSVLREYNPDIIHLASPFVLGGAAAFAARQLRIPAIAIYQTDVAGFSQRYHLAPLATASWEWIKTVHNMCQRTLAPSSMSIDELRDHGINDIFHWARGVDSKRFHPGKRSVALRKSWDPSGAKKIVGFVGRLASEKGVECLAGLSGRSDIQLVIVGDGPEAKYLQEMMPDAIFTGALGGEELATTYASLDLFVHPGEFETFCQAIQEAQASGVPTIGPRAGGPIDLINEGVNGLLLDVVDFKETLPAAAEWILDDSRHSEMCAAAWEGVKDKTWEALCTQLLQHYADVIALSQRIPLTFFGPSAEVAKLPLWVARALGVRTRISIEALEHHHHHH,soluble
15,SASTGSQASDIDEIFGFFNDGEPPTKKPRKLLPSLKTKKPRELVLVIGTGISAAVAPQVPALKSWKGLIQALLDAAIDFDLLEDEESKKFQKCLHEDKNLVHVAHDLIQKLSPRTSNVRSTFFKDCLYEVFDDLESKMEDSGKQLLQSVLHLMENGALVLTTNFDNLLELYAADQGKQLESLDLTDEKKVLEWAQEKRKLSVLHIHGVYTNPSGIVLHPAGYQNVLRNTEVMREIQKLYENKSFLFLGCGWTVDDTTFQALFLEAVKHKSDLEHFMLVRRGDVDEFKKLRENMLDKGIKVISYGDDYADLPEYFKRLTCEISTRGTSAGMVREGQLNGSSAAHSEIRGCST,soluble
16,MGSDKIHHHHHHMQSALWVSKTGLAAQDTKMTTIANNLANVNTTGFKRDRVAFNDLFYQVQRQPGGQVDELNQLPSGLQLGTGTRVAGTQKVFTTGDVHNTSQQLDLAIEGNGFFQVEEPNGDLAYTRDGQFYRSSEGMMVTSQGLPLVPNIVIPEDSTNITIATDGIVMATIAGDAEPQELGQITLINFTNPAGLEARGNNLYRETAASGVAVEGVAGDQALGGLRQGSLEGSNVNVVEEMVEMISTQRAYEMNAKVVSASDDMLKFLNQSV,not soluble
17,MSKLPEIGTKISLTDKAYEIIKDAIMTNIFKPGELLIEEKLAEQLAISRTPLRAALRKLAYDHLVEINSSRNVIVANIGQKDVEEITVVREVLEPLAVKELENNIGEDELKKLEEILCRQKKAVLEDNYEELIKMEYEFHVAIGELTHNKWLHGMLKDINTIVQRYLILSGSLNKYKEVAIKEHEVIISEIRQGNYDKAVESMKCHISNVSSRMLK,not soluble
18,DEQEKLLRLVDNSVELMSLLGTNNINSYINKAGMELLGFDTMEQVLRTPISELHLKEDFEKVSANVITSLQDKGRWSGQMNVRNLKSGEVIPVYNNTVRIDDPATGEILAFGAVMRDMR,not soluble
19,MGKALPFYLSPYPVDFWTNASFSDEEHEDAALSNSHLGRNAMVPPQGRSGPASWILRSVRDPGFAPCPPWSWIYHQFRIAWLRCVVRMDGRAPQVQTGQSTSPAKAASNATALQDQA,not soluble
20,MMNWKQLISAKRFGMEEFHEERQENRSEFQRDYDRLIFSAPFRRLQNKTQVFPLPGSIFVHNRLTHSLEVSCVGRSLGNDVAKAILERQPELESSFLPEIGSIVSAACLAHDLGNPPFGHSGERAISTFFSEGKGQRLQEKQPDGEQLSPMEWEDLTHFEGNANAFRILTHQFEGRRRGGFVLTYSTLASIVKYPFSSSLAGKKSKFGFFVSEEESYRKIATELGLIQLSEQPLKYARHPLVYLVEAADDICYQMMDIEDAHKLKIITTDETKELLMAFFSEDRQSRLRSTFQIVNDINEQIAYLRSSVIGLLVRECTRVFLEHEQEILAGTFEGALIKHIAEGPAAAYNHCAEISLKRIYRSQDVLDIELAGFRIISTLLELMVDAVTLPGKEKAYSELLTNRVSDQYNIKSPVLYERIQAVLDYISGMTDVFALDLYRKINGNSLPAV,not soluble
